# Experiments:
# HLA-A*01:01 = assay: IEDB peptide-MHC binding, purified MHC/direct/fluorescence; filed as Kd, often an IC50 or EC50 that approximates it; ≥ and ≤ were set here for values at or beyond the usual limits of such assays; conditions: source organism: Cowpox virus
# HLA-A*03:01 [1] = assay: as above
# HLA-A*11:01 = assay: as above; conditions: source organism: Cowpox virus
# HLA-A*31:01 = assay: as above; conditions: source organism: Cowpox virus
# HLA-B*07:02 = assay: as above
# HLA-B*15:01 [2] = assay: as above; conditions: source organism: Cowpox virus
# HLA-B*15:17 [3] = assay: as above; conditions: source organism: Cowpox virus
# HLA-B*18:01 [4] = assay: as above; conditions: source organism: Cowpox virus
# HLA-B*27:05 = assay: as above; conditions: source organism: Cowpox virus
# HLA-B*40:01 = assay: as above
# HLA-B*46:01 [5] = assay: as above; conditions: source organism: Cowpox virus
# HLA-B*48:01 = assay: as above; conditions: source organism: Cowpox virus
# HLA-B*51:01 [6] = assay: as above; conditions: source organism: Cowpox virus
# HLA-B*57:01 [7] = assay: as above; conditions: source organism: Cowpox virus
# HLA-B*58:01 = assay: as above; conditions: source organism: Cowpox virus
# HLA-A*02:01 = assay: IEDB peptide-MHC binding, purified MHC/competitive/fluorescence; filed as Kd, often an IC50 or EC50 that approximates it; ≥ and ≤ were set here for values at or beyond the usual limits of such assays
# HLA-A*02:03 [8] = assay: as above
# HLA-A*02:06 = assay: as above; conditions: source organism: Vaccinia virus Copenhagen
# HLA-A*26:01 = assay: as above
# HLA-A*69:01 = assay: as above
# HLA-B*08:01 = assay: as above; conditions: source organism: Vaccinia virus Copenhagen
# HLA-B*15:42 = assay: as above
# HLA-B*39:01 = assay: as above
# HLA-B*45:06 = assay: as above
# HLA-B*83:01 = assay: as above
# HLA-A*02:03 [9] = assay: IEDB peptide-MHC binding, purified MHC/direct/fluorescence; filed as Kd, often an IC50 or EC50 that approximates it; ≥ and ≤ were set here for values at or beyond the usual limits of such assays
# HLA-A*02:11 = assay: as above
# HLA-A*02:12 [10] = assay: as above
# HLA-A*02:16 = assay: as above
# HLA-A*02:19 [11] = assay: as above
# HLA-A*24:03 = assay: as above
# HLA-A*29:02 [12] = assay: as above
# HLA-A*68:02 [13] = assay: as above
# HLA-B*15:01 [14] = assay: IEDB peptide-MHC binding, purified MHC/competitive/fluorescence; filed as Kd, often an IC50 or EC50 that approximates it; ≥ and ≤ were set here for values at or beyond the usual limits of such assays
# HLA-B*15:17 [15] = assay: as above; conditions: source organism: Orthohantavirus andesense
# HLA-B*18:01 [16] = assay: as above
# HLA-B*27:03 = assay: as above
# HLA-B*35:01 = assay: as above; conditions: source organism: Orthohantavirus andesense
# HLA-B*46:01 [17] = assay: as above
# HLA-B*51:01 [18] = assay: as above
# HLA-B*57:01 [19] = assay: as above
# HLA-A*02:12 [20] = assay: as above; conditions: source organism: Vibrio parahaemolyticus RIMD 2210633
# HLA-A*02:19 [21] = assay: as above; conditions: source organism: Vibrio parahaemolyticus RIMD 2210633
# HLA-A*03:01 [22] = assay: as above; conditions: source organism: Vibrio parahaemolyticus RIMD 2210633
# HLA-A*29:02 [23] = assay: as above; conditions: source organism: Vibrio parahaemolyticus RIMD 2210633
# HLA-A*68:02 [24] = assay: as above; conditions: source organism: Vibrio parahaemolyticus RIMD 2210633
# [25] = source organism: Vaccinia virus Copenhagen
# [26] = source organism: Orthohantavirus andesense
# [27] = source organism: Vibrio parahaemolyticus RIMD 2210633
sequence,measurement,setting,value
YPPPRYITV,Kd,HLA-A*01:01,≥ 20 µM
same,Kd,HLA-A*03:01 [1]; source organism: Cowpox virus,≥ 20 µM
same,Kd,HLA-A*11:01,≥ 20 µM
same,Kd,HLA-A*31:01,≥ 20 µM
same,Kd,HLA-B*07:02; source organism: Cowpox virus,0.113 µM
same,Kd,HLA-B*15:01 [2],≥ 20 µM
same,Kd,HLA-B*15:17 [3],≥ 20 µM
same,Kd,HLA-B*18:01 [4],≥ 20 µM
same,Kd,HLA-B*27:05,≥ 20 µM
same,Kd,HLA-B*40:01; source organism: Cowpox virus,≥ 20 µM
same,Kd,HLA-B*46:01 [5],≥ 20 µM
same,Kd,HLA-B*48:01,≥ 20 µM
same,Kd,HLA-B*51:01 [6],0.179 µM
same,Kd,HLA-B*57:01 [7],≥ 20 µM
same,Kd,HLA-B*58:01,≥ 20 µM
same,Kd,HLA-A*02:01; [25],0.106 µM
same,Kd,HLA-A*02:03 [8]; [25],0.239 µM
same,Kd,HLA-A*02:06,0.0114 µM
same,Kd,HLA-A*26:01; [25],≥ 20 µM
same,Kd,HLA-A*69:01; [25],0.0681 µM
same,Kd,HLA-B*08:01,0.543 µM
same,Kd,HLA-B*15:42; [25],≥ 5 µM
same,Kd,HLA-B*39:01; [25],3.58 µM
same,Kd,HLA-B*45:06; [25],≥ 5 µM
same,Kd,HLA-B*83:01; [25],≥ 5 µM
KPKALSEAF,Kd,HLA-A*02:03 [9]; source organism: Oran virus,≥ 20 µM
same,Kd,HLA-A*02:11; source organism: Oran virus,≥ 20 µM
same,Kd,HLA-A*02:12 [10]; source organism: Oran virus,≥ 20 µM
same,Kd,HLA-A*02:16; source organism: Oran virus,≥ 20 µM
same,Kd,HLA-A*02:19 [11]; source organism: Oran virus,≥ 20 µM
same,Kd,HLA-A*03:01 [1]; source organism: Oran virus,≥ 20 µM
same,Kd,HLA-A*24:03; source organism: Oran virus,≥ 20 µM
same,Kd,HLA-A*29:02 [12]; source organism: Oran virus,≥ 20 µM
same,Kd,HLA-A*68:02 [13]; source organism: Oran virus,≥ 20 µM
same,Kd,HLA-B*07:02; source organism: Oran virus,0.0765 µM
same,Kd,HLA-A*02:01; [26],≥ 20 µM
same,Kd,HLA-A*26:01; [26],≥ 20 µM
same,Kd,HLA-A*69:01; [26],≥ 20 µM
same,Kd,HLA-B*15:01 [14]; [26],≥ 20 µM
same,Kd,HLA-B*15:17 [15],≥ 20 µM
same,Kd,HLA-B*18:01 [16]; [26],≥ 20 µM
same,Kd,HLA-B*27:03; [26],≥ 20 µM
same,Kd,HLA-B*35:01,0.0223 µM
same,Kd,HLA-B*39:01; [26],≥ 20 µM
same,Kd,HLA-B*46:01 [17]; [26],≥ 20 µM
same,Kd,HLA-B*51:01 [18]; [26],≥ 20 µM
same,Kd,HLA-B*57:01 [19]; [26],≥ 20 µM
LEEDIQHFL,Kd,HLA-A*02:03 [9]; [26],≥ 20 µM
same,Kd,HLA-A*02:11; [26],≥ 20 µM
same,Kd,HLA-A*02:12 [10]; [26],≥ 20 µM
same,Kd,HLA-A*02:16; [26],≥ 20 µM
same,Kd,HLA-A*02:19 [11]; [26],≥ 20 µM
same,Kd,HLA-A*03:01 [1]; [26],≥ 20 µM
same,Kd,HLA-A*24:03; [26],≥ 20 µM
same,Kd,HLA-A*29:02 [12]; [26],≥ 20 µM
same,Kd,HLA-A*68:02 [13]; [26],≥ 20 µM
same,Kd,HLA-B*40:01; [26],0.0002 µM
same,Kd,HLA-A*02:01; [26],≥ 20 µM
same,Kd,HLA-A*26:01; [26],≥ 20 µM
same,Kd,HLA-A*69:01; [26],≥ 20 µM
same,Kd,HLA-B*15:01 [14]; [26],≥ 20 µM
same,Kd,HLA-B*15:17 [15],≥ 20 µM
same,Kd,HLA-B*15:42; [26],≥ 5 µM
same,Kd,HLA-B*18:01 [16]; [26],≥ 20 µM
same,Kd,HLA-B*27:03; [26],≥ 20 µM
same,Kd,HLA-B*39:01; [26],≥ 20 µM
same,Kd,HLA-B*45:06; [26],≥ 5 µM
same,Kd,HLA-B*46:01 [17]; [26],≥ 20 µM
same,Kd,HLA-B*51:01 [18]; [26],≥ 20 µM
same,Kd,HLA-B*57:01 [19]; [26],≥ 20 µM
same,Kd,HLA-B*83:01; [26],≥ 5 µM
HVIYFTAFT,Kd,HLA-A*02:01; [27],≥ 20 µM
same,Kd,HLA-A*02:03 [8]; [27],≥ 20 µM
same,Kd,HLA-A*02:12 [20],≥ 20 µM
same,Kd,HLA-A*02:19 [21],≥ 20 µM
same,Kd,HLA-A*03:01 [22],≥ 20 µM
same,Kd,HLA-A*26:01; [27],≥ 20 µM
same,Kd,HLA-A*29:02 [23],≥ 20 µM
same,Kd,HLA-A*68:02 [24],0.0577 µM
same,Kd,HLA-B*15:01 [14]; [27],≥ 20 µM
same,Kd,HLA-B*18:01 [16]; [27],≥ 20 µM
same,Kd,HLA-B*27:03; [27],≥ 20 µM
same,Kd,HLA-B*39:01; [27],≥ 20 µM
same,Kd,HLA-B*46:01 [17]; [27],≥ 20 µM
same,Kd,HLA-B*51:01 [18]; [27],≥ 20 µM
same,Kd,HLA-B*57:01 [19]; [27],≥ 20 µM

# Reference: the Immune Epitope Database (IEDB)
